Results on 26 molecules are retold here after patent US20240180856A1, “COMPOSITIONS, […] SYSTEMS, AND METHODS USEFUL IN TUMOR […]” (published 2024).

Positions of bridges follow the written chain, without caps; N, C: chain ends. Non-standard residues stand in square brackets, D forms with d. Groups on a side chain read outwards from the residue. Primed or numbered codes have the meaning given here. No end group written: not given here. *: point of attachment. DOTA = O=C(O)CN1CCN(CC(=O)O)CCN(CC(=O)*)CCN(CC(=O)O)CC1; Biotin = O=C1N[C@H]2[C@H](CS[C@H]2CCCCC(=O)*)N1; Butanoyl(4-(4-I-phenyl)) = O=C(CCCc1ccc(I)cc1)*; Butanoyl(4-(4-MePh)) = Cc1ccc(CCCC(=O)*)cc1; Lys(N3) = [N-]=[N+]=NCCCC[C@H](N)C(=O)O; FB = fluorobenzaldehyde oxime; PEG10′ = PEG spacer, 10 units; PEG3′ = PEG spacer, 3 units; PEG7′ = PEG linker, 7 units; AO = aminooxy group, NO*; Pra = C#CC[C@H](N)C(=O)O

Assay [1] addresses human plasma proteins. Put plainly: plasma protein binding, equilibrium dialysis, LC-MS/MS; control. For orientation: In equilibrium dialysis free small molecules cross a membrane that holds back macromolecules.
The target in assay [2] is CD-1 mouse plasma proteins. The description is as above.
Assay [3] has as its target His-tagged FOLR1 human recombinant protein (11241-H08H, SinoBiological) (human) (UniProt P15328). Kind of assay: ELISA, linker screen. For orientation: In an ELISA, binding on a coated surface is turned into a signal by an enzyme label.
Assay [4] shares this target. Put plainly: ELISA.
For assay [5], the target named is human plasma proteins. Kind of assay: plasma protein binding, equilibrium dialysis, LC-MS/MS.
In assay [6] the target is CD-1 mouse plasma proteins. The assay is described as above.
In assay [7] the target is human plasma proteins. Put plainly: plasma protein binding; value marked (FB).
The target of assay [8] is CD-1 mouse plasma proteins. Put plainly: plasma protein binding; value marked (FB).
For assay [9], the target named is FOLR1 on OVCAR3 cells (human ovarian adenocarcinoma, FOLR1 (+) cell line) (human) (UniProt P15328). Put plainly: flow cytometry on OVCAR3 cells, no folate. On the technique in general: Flow cytometry measures light scatter and fluorescence of single cells or particles in a stream.
Assay [10] addresses mouse recombinant FOLR1 (rMuFOLR1) (mouse, UniProt P35846). Put plainly: ELISA.
Assay [11] deals with FOLR1 on OVCAR3 cells (human ovarian adenocarcinoma, FOLR1 (+) cell line) (human) (UniProt P15328). Put plainly: flow cytometry on OVCAR3 cells, with 0.1 µg/mL free folate as competitor.
Assay [12] concerns the target His-tagged FOLR1 human recombinant protein (11241-H08H, SinoBiological) (human) (UniProt P15328). Kind of assay: ELISA, against folate as reference.
Assay [13] shares this target. Put plainly: ELISA. The source holds these as a separate data set.
Assay [14] has as its target FOLR1 on OVCAR3 cells (human ovarian adenocarcinoma, FOLR1 (+) cell line) (human) (UniProt P15328).

Consider Octreotide Acetate (peptide), for which the Plasma % Bound with human plasma proteins [1] amounted to 59.4%; in [2] it was 62.4%.
By EC50 is commonly meant the concentration that produces a half-maximal response. With {Fol-PEG7′}-[dH][dS][dH][dT][dA] (also: triazole macrocycle (Pra/Az4 click), ends not placed) [Folate-PEG7-hshta heterobiligand], the EC50 in [3] worked out at 1 nM.
As for Fol-[dH][dS][dH][dT][dA]K(Butanoyl(4-(4-MePh)))[PEG10′][PEG10′]K(Biotin) (not fully specified (some residues, bridges); printed as Folate-hshta-MPBA) [Folate-hshta-MPBA: folate-hshta with the tag Lys(4-MPBA)-PEG10-PEG10-Lys(Biotin)], in assay [4], the EC50 was determined as 0.11 nM.
Still for that read-out and setting: the same measure for [Pra][dK][dY][dE][dE][dT][Lys(N3)] (triazole N-C) [kyeet (SEQ ID NO:9) macrocyclic peptide ligand (PCC)]: > 10000 nM.

B1: Lys(PEG3-Folate)-deryt heterobiligand (peptide)
peptide: K[dD][dE][dR][dY][dT]
modifications: not fully specified (residue 1, C-terminus, bridges); also: macrocycle (click Pra/Az4 or amide variant), ends not placed
Consider B1, for which, in assay [4], the EC50 was determined as 0.16 nM.
On to Fol-[dH][dS][dH][dT][dA]GFK(DOTA) (not fully specified (residue 5, bridges)) [Compound #6307, Fol-hshta-PEG3-Gly-Phe-Lys(DOTA)], for which the results for the Plasma % Bound (with human plasma proteins [5]; in assay [6]) were 41.3% and 40.6%, respectively.
The corresponding values for Fol-[dH][dS][dH][dT][dA]K(Butanoyl(4-(4-I-phenyl)))GFK(DOTA) (not fully specified (residue 5, bridges)) [Compound #1307, folate-hshta-Lys(IPBA)-Gly-Phe-Lys(DOTA) (SEQ ID NO:6)] are 99.5% and 99.6%.
As for Fol-[dH][dS][dH][dT][dA]GFK(AO) (not fully specified (residue 5, bridges); printed as Fol-hshta-Gly-Phe-Lys(AO)) [Compound #3303, Fol-hshta-Gly-Phe-Lys(AO)], the Plasma % Bound with human plasma proteins [7] worked out at 81%; in assay [8] it was 75.5%.
For Fol-[dH][dS][dH][dT][dA]K(Butanoyl(4-(4-MePh)))GFK(DOTA) (not fully specified (residue 5, bridges)) [Compound #6305, folate-hshta-Lys(MPBA)-Gly-Phe-Lys(DOTA) (SEQ ID NO:6)], the Plasma % Bound came to 98.3% with human plasma proteins [5] and 96.3% in [6].

B2: folate-hshta Tz heterobiligand (peptide)
peptide: [dH][dS][dH][dT][dA][Lys(N3)]
modifications: triazole N-C; not fully specified (N-terminus); also: folate joined through PEG linker and Tz (triazole) attachment
As to B2, the EC50 in assay [4] turned out to be 0.107 nM.
On the same count and under the same terms, the same measure for [Pra][dD][dE][dR][dY][dT][Lys(N3)] (triazole N-C) [deryt (SEQ ID NO:20) macrocyclic peptide ligand (PCC)]: 10000 nM.
For the molecule Fol-[dH][dS][dH][dT][dA]K(FB) (not fully specified (residue 5, bridges)) [Compound #2, Fol-hshta-PEG3-Lys(FB)], the values for the Plasma % Bound (in the assay with human plasma proteins [5]; in assay [6]) were 43% and 20.2%, respectively.
Turning to [Pra][dD][dE][dR][dY][dT][Lys(N3)] (triazole N-C; also: conjugated to folate, attachment not said) [folate-deryt (SEQ ID NO:20) heterobiligand (construct not specified)], the EC50 in [3] was 0.28 nM.

B3: folate-kyeet Tz heterobiligand (peptide)
peptide: [dK][dY][dE][dE][dT][Lys(N3)]
modifications: triazole N-C; not fully specified (N-terminus); also: folate joined through PEG linker and Tz (triazole) attachment
Take B3: in assay [4], the concentration for a half-maximal effect (EC50) came to 0.149 nM.

B4: Pra(Az4-PEG3-folate)-deryt heterobiligand (peptide)
peptide: [dD][dE][dR][dY][dT][Lys(N3)]
modifications: triazole N-C; not fully specified (N-terminus); printed as Pra(Az4-PEG3-folate)-deryt; also: N-terminal Pra joined by Tz (triazole) linker to Az4-PEG3-folate
B4: the 50% effective concentration (EC50) in assay [4] worked out at 0.27 nM.
Take Fol-[dH][dS][dH][dT][dA]K(Butanoyl(4-(4-I-phenyl)))MVK(DOTA) (not fully specified (residue 5, bridges)) [Compound #1306, folate-hshta-Lys(IPBA)-M-V-Lys(DOTA) (SEQ ID NO:6)]: the Plasma % Bound was 97.3% in the assay with human plasma proteins [5] and 97.1% in assay [6].
Consider Fol-[dH][dS][dH][dT][dA][PEG10′][PEG10′]K(Biotin) (not fully specified (bridges); printed as folate-hshta) [folate-hshta (SEQ ID NO:6) NTerm heterobiligand, Folate-hshta-PEG10-PEG10-K(Biotin)], for which the EC50 came out at 0.18 nM in [3], 0.33 nM in [10], 0.065 nM in [4] and 0.35 nM in [13]. The percentage of OVCAR3 cells binding is 76.6% in assay [9] and 57% in [11]. Moreover, the fold greater affinity than folate itself in [12] came out at 30 fold.

B5: DyLight650-labeled folate-hshta (SEQ ID NO:6) Nterm heterobiligand (peptide)
peptide: Fol-[dH][dS][dH][dT][dA]
modifications: not fully specified (C-terminus, bridges); also: DyLight 650 label, site not given here
In turn, B5 had a percentage of positively stained cells after acid wash (flow cytometry) in [14] of 54.2%.

B6: Compound #2809, folate-hshta-PEG3-Lys(MPBA)-Lys(DOTA) (SEQ ID NO:6) (peptide)
peptide: Fol-[dH][dS][dH][dT][dA]K(Butanoyl(4-(4-MePh)))K(DOTA)
modifications: not fully specified (residue 5, bridges); printed as folate-hshta-PEG3-Lys(MPBA)-Lys(DOTA)
On to B6, for which the Plasma % Bound stood at 83.3% with human plasma proteins [5] and 92.1% in assay [6].

B7: Compound #1189, Fol-hshta-PEG3-Lys(DOTA) (peptide)
peptide: Fol-[dH][dS][dH][dT][dA]K(DOTA)
modifications: not fully specified (residue 5, bridges); printed as folate-hshta-PEG3-Lys(DOTA)
As to B7, the Plasma % Bound came out at 46% with human plasma proteins [5] and 29.5% in [6].
With Fol-G[dH][dS][dH][dT][dA] (not fully specified (residue 1, C-terminus, bridges)) [Folate-Gly-hshta heterobiligand], the EC50 in assay [3] was 0.9 nM.
Consider [Pra][dH][dS][dH][dT][dA][Lys(N3)] (triazole N-C; also: further groups not given here) [hshta (SEQ ID NO:6) macrocyclic peptide ligand (PCC)], for which the figures for the half-maximal effective concentration (EC50) in [10], in [4] and in assay [13] were 2100 nM, 3920 nM and 3400 nM, respectively.
Fol-[dH][dS][dH][dT][dA]K(DOTA)[PEG10′][PEG10′]K(Biotin) (not fully specified (some residues, bridges); printed as Folate-hshta-DOTA) [Folate-hshta-DOTA: folate-hshta with the tag Lys(DOTA)-PEG10-PEG10-Lys(Biotin)]: the EC50 in [4] came out at 0.098 nM.
Consider Fol-P[dH][dS][dH][dT][dA] (not fully specified (residue 1, C-terminus, bridges)) [Folate-Pro-hshta heterobiligand], for which the EC50 in assay [3] worked out at 0.9 nM.
Take Fol-[dH][dS][dH][dT][dA]K(Butanoyl(4-(4-MePh)))GFK([PEG3′-DOTA]) (not fully specified (residue 5, bridges)) [Compound #3302, Fol-hshta-Lys(4-MPBA)-Gly-Phe-Lys(PEG3-DOTA)]: the figures for the Plasma % Bound (in the assay with human plasma proteins [5]; in [6]) were 94.9% and 96.5%, respectively.

B8: Compound #7327, folate-hshta-Gly-Phe-Lys(DOTA) (SEQ ID NO:6) (peptide)
peptide: [dH][dS][dH][dT][dA]GFK(DOTA)
modifications: not fully specified (residue 5, N-terminus, bridges); printed as folate-hshta-Gly-Phe-Lys(DOTA)
Consider B8, for which the Plasma % Bound with human plasma proteins [5] amounted to 40.3%; in assay [6], 40.9%.
